Holding throughout (conditions): EMSA: 0.2 uM 5'-labelled RNA (90 C 2 min, slow cool to 37 C), yeast tRNA 0.1 ug/reaction, Hfq hexamer 0-500 nM, structure buffer (Ambion), 10 min at 37 C, then …
A general note: In EMSA bound probe runs differently from free probe, usually more slowly.

Data set [1] deals with Hfq (Escherichia coli). Nature of the data set: EMSA.
Data set [2] addresses Hfq (Escherichia coli) (UniProt P0A6X3). The experiment in a line: EMSA.
The target is the same in data set [3]. The experiment in a line: footprinting (lead acetate).

Here are results for three substances from paper PMC8544716.

Chain of Hfq (Escherichia coli) (UniProt P0A6X3) (P0A6X3 whole entry): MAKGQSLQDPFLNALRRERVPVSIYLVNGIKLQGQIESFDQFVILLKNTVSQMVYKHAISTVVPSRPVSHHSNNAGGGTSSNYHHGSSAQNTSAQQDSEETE

What is called Kd is the constant that tells how readily two partners part at equilibrium. The low end stands for higher affinity, the high end for lower affinity. Substance sodB130 registered a Kd with Hfq (Escherichia coli) [1] of 156 nM. That is a sub-micromolar value.

Take “GGAUACGCACAAUAAGGCUAUUGUACGUAUGCAAAUUAAUAAUAAAGGAGAGUAGCAAUGUCAUUCGAAUUACCUGCACUACCAUAUGCUAAAGAUGCUCUGGCACCGCACAUUUCUGCGGAAACCAUCGAGGAUCCCUAGC [sodB130]”: in the data set with Hfq (Escherichia coli) [2], the Kd worked out at 156 nM. For the same substance, in the data set with Hfq (Escherichia coli) [3], the binding result is on record as “binds”.

“GGAUACGCACAAUAAGGCUAUUGUACGUAUGCAGGCCGGCAAUAAAGGAGAGUAGCAAUGUCAUUCGAAUUACCUGCACUACCAUAUGCUAAAGAUGCUCUGGCACCGCACAUUUCUGCGGAAACCAUCGAGGAUCCCUAGC [sodB130MH]”: the Kd with Hfq (Escherichia coli) [2] came out at 314 nM. This lies in the sub-micromolar range.
